According to the supplement of paper PMC9170038:

Test system: MS2 coat protein
Test: apparent KD of MS2 coat protein; designed switch direction (-1 OFF switch, 1 ON switch): 1; higher = weaker reporter binding
Outline: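 Transcription of designed RNA switches on Illumina chips was done by stalled E. coli RNA polymerase. SNAP-549-labelled MS2 coat protein was then titrated in doubling steps from 0.7 or 1.5 nM to 3 µM, with steps of 0.8–1.5 h at the lowest and 10–20 min at the highest concentration. The per-design median over clusters of curve-fitted normalised fluorescence is reported as apparent KD.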

[1] = input ligand: microRNA oligo, concentration not stated
[2] = Eterna round: R95, input ligand: FMN 200 uM
[3] = Eterna round: R95, input ligand: microRNA oligo, concentration not stated
[4] = Eterna round: R95, input ligand: none

| Sequence | apparent KD of MS2 coat protein (input ligand: FMN 200 uM) | apparent KD of MS2 coat protein [1] | apparent KD of MS2 coat protein (input ligand: none) | apparent KD of MS2 coat protein [2] | apparent KD of MS2 coat protein [3] | apparent KD of MS2 coat protein [4] |
| --- | --- | --- | --- | --- | --- | --- |
| CAGCCACAAAAUACGGCUGAAACAUGAGGAUCACCCAUGUCACAGGAUAUCCAACGGUAUACCGCGGAGAAGGGUGCGAAGAAC [Ceusso] (Eterna round: R96, puzzle: Same State NG 3) | 73.7 nM | 73.8 nM | 52.4 nM | – | – | – |
| UGUUGUAUUACAGGAUAUCUAGUAUUUAUAUUUAGAGAAGGGUAUUCACAUGAGGAUCACCCAUGUAUAUACGAGGAAGUUGUG [JMF's solution 41] (Eterna round: R96, puzzle: Same State NG 1) | – | 36.9 nM | – | – | – | – |
| GCCGACUAAUGAGGAUAUGGCACCUUAUUGGUGCCAGAAGGCAUGUCAAUUGACAUGAGGAUCACCCAUGUAUUAUAGUUGGCG [salish99_SSNG1_r04_602] (Eterna round: R96, puzzle: Same State NG 1) | 96.5 nM | 177 nM | 449 nM | – | – | – |
| GAGCCAGUCCGAGGAUAUUCGUAGGAACACAUGAGGAUCACCCAUGUGGGCUCAGAAGAGCCCUGGGAGAAGGCGGGCUGGCUC [SS-NG2-LRO18] (Eterna round: R96, puzzle: Same State NG 2) | 7.53 nM | 8.45 nM | 17.5 nM | – | – | – |
| UAGAGAGGAAGCGAGGAUAUCGUGUUAGGUACAUGAGGAUCACCCAUGUUGUAGGUAGAGGUAGGCGAGAAGGCGCAGGAGAGGG [JR_SS2_Sub093] (puzzle: Same State 2) | – | – | – | 56.3 nM | 47.1 nM | 83.8 nM |
| GCACAUGAGGAUCACCCAUGUGCGCUUGAUUGUCCAAGCGCACAGGAUAUACCUCCAAAUGGGAGGUAGAAGGGUGAAAAGAAA [Ravema] (Eterna round: R96, puzzle: Same State NG 3) | 2310 nM | 393 nM | 347 nM | – | – | – |
| GGAAUCUCCAGAGAGGAUAUGCGGCGUUAAACAUGAGGAUCACCCAUGUCCUUCGAAUGGGUAACGCAGAAGGCUCUACGGUUCC [Shapeless] (puzzle: Same State 2) | – | – | – | 115 nM | 594 nM | 1220 nM |
| AGAAAACAUGAGGAUCACCCAUGUAGAAAUAUGGGAGGAUAUACAAAGACGAAAGUCAGAGUAGAAGGCCUAAAAA [salish99-SS1-085] (Eterna round: R96, puzzle: Same State 1) | – | 46.6 nM | – | – | – | – |
| CGUCGUUUGAUAGGAUAUCGCUUUCCAUGAGGAUCACCCAUGUUUACCACGCUGGUUUUUCUUUCCGAGAAGGAUUCUGAUGUU [salish99_SSNG02_r04_025] (Eterna round: R96, puzzle: Same State NG 2) | 169 nM | 143 nM | 153 nM | – | – | – |
| UAUGAAUUGCAAGGAUAUUGAUAACAUGAGGAUCACCCAUGUAAUUGAUCGAGUUAGAUCAGUUACAAGAAGGUGCUAUUGAUU [JR_SSNG2_Sub036] (Eterna round: R96, puzzle: Same State NG 2) | 534 nM | 24.5 nM | 90.7 nM | – | – | – |
| CAGCGCUGUCGAGAGGAUAUGCAGUGAUGGACAUGAGGAUCACCCAUGUUAGCGAUAGCAUUACAGUAGAAGGCUCUACAGCUGC [Soteed - 14] (puzzle: Same State 2) | – | – | – | 13 nM | 16.4 nM | 19.5 nM |
| GGUGGGUUACUACCAACACAUGAGGAUCACCCAUGUUUUGGGAAGGAUAUGGUACCUAUUUGGUACCAGAAGGUCCAGUUGGUG [salish99_SSNG3_r04_703] (Eterna round: R96, puzzle: Same State NG 3) | 49.8 nM | 79.8 nM | 125 nM | – | – | – |
| GAGGAUGAACUACAGGAUAUAUAGCAGAUGACAUGAGGAUCACCCAUGUAAGAGAAAGGAGGGAGAUAGAAGGGUAUGGGAGGUG [JR_SS2_Sub037] (puzzle: Same State 2) | – | – | – | 34.4 nM | 28.6 nM | 27.1 nM |
| AGCAAAAUAAGCAAGGAUAUGUAAUUUGGCACAUGAGGAUCACCCAUGUCAAUCCAUUUUUUUGAACAGAAGGUGCAUUUUUUUU [ak first solve] (puzzle: Same State 2) | – | – | – | – | 36.4 nM | – |
| AAGUUAAGCUUUUUGUUCUGCCUAUUCUAACAUGAGGAUCACCCAUGUAGUCAGACGACUGCGUGUGUAGUUGAGAU [JR_SHM208A_Sub029] (puzzle: Sensor for hsa-mir-208a) | – | – | – | 121 nM | 194 nM | 111 nM |
| GAGCCAGUCCGAGGAUAUUCAUAAUUAAAUACAUGAGGAUCACCCAUGUAGGCAAGAGAGCCUUGGGAGAAGGCGGACUGGCUC [Xeonanisa>>2] (Eterna round: R96, puzzle: Same State NG 2) | 12.8 nM | 25 nM | 42.9 nM | – | – | – |
| ACGCAGCUGGGUGAGGAUAUCGGUGGUAAAACAUGAGGAUCACCCAUGUCCGAAGCUCGGACUUCCGAGAAGGCGCCCGGCCGCA [Atbeatve] (puzzle: Same State 2) | – | – | – | 14.6 nM | 65.2 nM | 83.1 nM |
| UACAAUCUAUCUGAGGAUAUCAUGAUUGUAACAUGAGGAUCACCCAUGUGCAGGAAAACUGCAUAUGAGAAGGCAGAUAGAUUGU [salish99_ss2_r3_071] (puzzle: Same State 2) | – | – | – | 113 nM | 78 nM | 708 nM |
| AAGUAACAUGAGGAUCACCCAUGUGAGGUGAGCGUAGGAUAUCGAGGAGGAAGGGUAGGUCGAGAAGGACGAGAAG [JR_SS1_Sub096] (puzzle: Same State 1) | – | – | – | 127 nM | 162 nM | 247 nM |
| UAGCUCGUGUGAGGAUAUGCCGCCGUUUCGGCUGCAGAAGGUGCUACGUUACAUGAGGAUCACCCAUGUCUCUGUUGUUUCGUC [salish99_SSNG1_r04_955] (Eterna round: R96, puzzle: Same State NG 1) | – | 23.9 nM | – | – | – | – |
| AUACAUGAGGAUCACCCAUGUAAUUAAUUAACUUGUAAGAUCAAGGAUAUCAGCUCGAUUAGAGCUGAGAAGGUGAUCACAUGU [SSNG3/21-C2] (Eterna round: R96, puzzle: Same State NG 3) | – | 116 nM | – | – | – | – |
| GGCGUAUAAACAUGAGGAUCACCCAUGUUGCGGAGACGCAAUGAGGAUAUCGAUGGGUUUCCCGUCGAGAAGGCGUGGGUCGCC [JL SSNG3 3.95] (Eterna round: R96, puzzle: Same State NG 3) | 22.3 nM | 24.6 nM | 40.2 nM | – | – | – |
| CUGAGCGAUCUAGGAUAUCACGUCGAAUAGACGUGAGAAGGAGAUCAUAACAUGAGGAUCACCCAUGUAUUACAUGAAGCUCAG [SSNG1/6-A1] (Eterna round: R96, puzzle: Same State NG 1) | 13.2 nM | 10.4 nM | 25.4 nM | – | – | – |
| AAAAUACAUGAGGAUCACCCAUGUAGAAACUACACAGGAUAUCGGACGGCUAUAACCGAACGAGAAGGGUGAACCC [Onorvea] (puzzle: Same State 1) | – | – | – | 260 nM | 354 nM | 362 nM |
| CUGCUCGUGUGAGGAUAUGCCGCCGUUUCGGCUGCAGAAGGUGCUACGUUACAUGAGGAUCACCCAUGUCUCUGUUGUUUCGUA [salish99_SSNG1_r04_948] (Eterna round: R96, puzzle: Same State NG 1) | 40.1 nM | 28.8 nM | 35.9 nM | – | – | – |
| CCAUGGUAACAUGAGGAUCACCCAUGUACAAGCUUUUUGCUCGUCUUACCCGGCGCGCCCAUUAUGGGCGCGCCGGG [Nishu_Seq3] (puzzle: Sensor for hsa-mir-208a version 2) | – | – | – | 41.1 nM | 45.4 nM | 32.5 nM |
| AUUAUUAAUGCAGGAUAUGAUUAACAUGAGGAUCACCCAUGUGGUGUUGUGAGUAAGGAGAGUGAUCAGAAGGGCAUCUUUUUU [JMF's solution 10] (Eterna round: R96, puzzle: Same State NG 2) | 470 nM | 312 nM | 359 nM | – | – | – |
| AACCAGAGAAAACAACUCUGACAUGAGGAUCACCCAUGUACACAGGAUAUCAGCCCGAAAAGGGCUGAGAAGGGUGGCCGAGUG [Beveat] (Eterna round: R96, puzzle: Same State NG 3) | 574 nM | 29.2 nM | 33.9 nM | – | – | – |
| GUACAGAUCAGAGGAUAUCACGUCGAUUAGACGUGAGAAGGCUGAUCACACAUGAAUAUUAGUACAUGAGGAUCACCCAUGUAC [SSNG1/15-A2] (Eterna round: R96, puzzle: Same State NG 1) | 14 nM | 12.5 nM | 16.7 nM | – | – | – |
